Laboratory results from paper PMC11301063, “The Musashi-1–type 2 deiodinase pathway regulates astrocyte proliferation”.

Experiments:
Musashi-1 (MSI1) [1] = molecular target: T1, Musashi-1 (MSI1) (Mus musculus (mouse), UniProt Q61474 1-362); assay: EMSA; 1 ug protein incomplete shift (two bands), 1.5 ug complete shift of 80 fmol probe; REMSA 1x binding buffer (LightShift kit), 0.125 mg/ml BSA, 80 fmol RNA, 1.5 ug protein, 20 ul, 20 min at RT; native 6% PAGE in 0.5x TBE pH 7.5 at 4 C; protein dialyzed in 20 mM TBE, 5 mM DTT; conditions: protein: recombinant; tags: His tag; label: 3' biotin; single strand
T1 sequence (Q61474 whole entry): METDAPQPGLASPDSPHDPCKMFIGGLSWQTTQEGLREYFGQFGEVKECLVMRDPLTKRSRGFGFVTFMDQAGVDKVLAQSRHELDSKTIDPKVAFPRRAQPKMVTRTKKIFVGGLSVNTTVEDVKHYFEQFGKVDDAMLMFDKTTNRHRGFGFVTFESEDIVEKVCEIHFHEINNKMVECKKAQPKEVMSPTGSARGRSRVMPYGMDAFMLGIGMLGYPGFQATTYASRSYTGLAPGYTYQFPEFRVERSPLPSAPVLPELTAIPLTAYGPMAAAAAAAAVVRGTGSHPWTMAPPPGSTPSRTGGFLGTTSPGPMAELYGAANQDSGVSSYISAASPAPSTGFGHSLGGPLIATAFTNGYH

Musashi-1 (MSI1) [2] = molecular target: T1, Musashi-1 (MSI1); assay: competition; free probe restored at 1250x (100 pmol) unlabeled RNA; 1.5 ug protein, 80 fmol labeled N1; REMSA 1x binding buffer (LightShift kit), 0.125 mg/ml BSA, 80 fmol RNA, 1.5 ug protein, 20 ul, 20 min at RT; native 6% PAGE in 0.5x TBE pH 7.5 at 4 C; protein dialyzed in 20 mM TBE, 5 mM DTT; conditions: protein: recombinant; tags: His tag; label: none; single strand

Binder | binding result (Musashi-1 (MSI1) [1]) | binding result (Musashi-1 (MSI1) [2])
GUUUAUAGCUAGAUUAGUUUAGCUGAAAGUUAAGUAGUUUGCAA (ssRNA) [cDio2 3'UTR RNA probe nt 2582-2625] | binds | 
GUUUAUAGCUAGAUUAGUUUAGCUGAAAGUUAAGUAGUUUGCAA (ssRNA) [unlabeled cDio2 3'UTR RNA competitor] |  | binds
